Test results published in US6485936 (HSP RESEARCH INSTITUTE, dated 2002).
One block for each binder: values may come before it.

How the values were obtained:
[1] = molecular target: T1, GST-HSF2N96C328 (human, UniProt Q03933 96-328); assay: GST pull-down, 35S-labeled in vitro translated deletion mutant
T1 construct: Expressed in E. coli and immobilized on glutathione-Sepharose; also called HSF2N96C328 (GST fusion); not shown: glutathione S-transferase (GST) encoded by the pGEX-5X-1 vector (Pharmacia)
T1 sequence (looked up): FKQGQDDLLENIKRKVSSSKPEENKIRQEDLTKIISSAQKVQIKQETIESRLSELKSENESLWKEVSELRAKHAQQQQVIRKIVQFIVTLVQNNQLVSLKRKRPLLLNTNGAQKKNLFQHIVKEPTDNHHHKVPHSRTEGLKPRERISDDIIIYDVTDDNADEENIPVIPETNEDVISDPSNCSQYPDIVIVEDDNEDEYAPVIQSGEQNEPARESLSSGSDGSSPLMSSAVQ

[2] = molecular target: T1, GST-HSF2N96C328; assay: GST pull-down with GST-HSF2N96C328; 35S-labeled in vitro translated protein

proportion bound (% of the level of input) [2]: 12.9 % of the level of input
B2: HSF2 binding protein (HSF2BP), in vitro translated, 35S-methionine-labeled (other)
chain: MGEAGAAEEACRHMGTKEEFVKVRKKDLERLTTEVMQIRDFLPRILNGEVLESFQKLKIVEKNLERKEQELEQLKMDCEHFKARLETVQADNIREKKEKLALRQQLNEAKQQLLQQAEYCTEMGAAACTLLWGVSSSEEVVKAILGGDKALKFFSITGQTMESFVKSLDGDVQELDSDESQFVFALAGIVTNVAAIACGREFLVNSSRVLLDTILQLLGDLKPGQCTKLKVLMLMSLYNVSINLKGLKYISESPGFIPLLWWLLSDPDAEVCLHVLRLVQSVVLEPEVFSKSASEFRSSLPLQRILAMSKSRNPRLQTAAQELLEDLRTLEHNV
modifications: 35S-methionine label
notes: In vitro translated (TNT kit) from HSF2BP cDNA in pcDNA 3.1 His A, B or C; also called human HSF2BP; intact HSF2BP

proportion bound (% of the level of input) [2]: 22.3 % of the level of input
B4: BP-C150 (deletion mutant of HSF2BP), in vitro translated, 35S-methionine-labeled (other)
chain: MGEAGAAEEACRHMGTKEEFVKVRKKDLERLTTEVMQIRDFLPRILNGEVLESFQKLKIVEKNLERKEQELEQLKMDCEHFKARLETVQADNIREKKEKLALRQQLNEAKQQLLQQAEYCTEMGAAACTLLWGVSSSEEVVKAILGGDKA
modifications: 35S-methionine label
notes: Vector pcDNA 3.1 His; tag residues are not described

More lines, now with the values behind:

B1: BP-C73 (deletion mutant of HSF2BP), in vitro translated, 35S-methionine-labeled (other)
chain: MGEAGAAEEACRHMGTKEEFVKVRKKDLERLTTEVMQIRDFLPRILNGEVLESFQKLKIVEKNLERKEQELEQ
modifications: 35S-methionine label
binding result [1]: no binding

B3: BP-N115 (deletion mutant of HSF2BP), in vitro translated, 35S-methionine-labeled (other)
chain: QQAEYCTEMGAAACTLLWGVSSSEEVVKAILGGDKALKFFSITGQTMESFVKSLDGDVQELDSDESQFVFALAGIVTNVAAIACGREFLVNSSRVLLDTILQLLGDLKPGQCTKLKVLMLMSLYNVSINLKGLKYISESPGFIPLLWWLLSDPDAEVCLHVLRLVQSVVLEPEVFSKSASEFRSSLPLQRILAMSKSRNPRLQTAAQELLEDLRTLEHNV
modifications: 35S-methionine label
binding result [1]: no binding

B5: BP-C115 (deletion mutant of HSF2BP), in vitro translated, 35S-methionine-labeled (other)
chain: MGEAGAAEEACRHMGTKEEFVKVRKKDLERLTTEVMQIRDFLPRILNGEVLESFQKLKIVEKNLERKEQELEQLKMDCEHFKARLETVQADNIREKKEKLALRQQLNEAKQQLLQ
modifications: 35S-methionine label
proportion bound (% of the level of input) [2]: 5.7 % of the level of input
